Test results as given in the supplement of paper PMC10567573.

B1: SNX3 (parent)
chain: FLRQLPFRGDDGIFDDNFIEERKQ

Variants of: B1
Test: protein stability index of a GFP-peptide fusion (GPS, HEK-293T) (PSI 1-6); higher = more stable
Conditions: c terminus: a fixed tail appended
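Note: lentivirally expressed fusions sorted by FACS into six bins by GFP to DsRed ratio, PSI derived from sequencing read proportions per bin multiplied by bin number.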

Row | Variant | protein stability index
1 | FLRVLPFRGDDGIFDDNFIEERKQ [Q4V] | 3.07
2 | FLRYLPFRGDDGIFDDNFIEERKQ [Q4Y] | 1.48
3 | FLRSLPFRGDDGIFDDNFIEERKQ [Q4S] | 2.95
4 | FLRTLPFRGDDGIFDDNFIEERKQ [Q4T] | 3.08
5 | FLRMLPFRGDDGIFDDNFIEERKQ [Q4M] | 3.22
6 | FLRPLPFRGDDGIFDDNFIEERKQ [Q4P] | 1.95
7 | FLRWLPFRGDDGIFDDNFIEERKQ [Q4W] | 2.7
8 | FLRNLPFRGDDGIFDDNFIEERKQ [Q4N] | 2.13
9 | FLRRLPFRGDDGIFDDNFIEERKQ [Q4R] | 2.27
10 | FLRQFPFRGDDGIFDDNFIEERKQ [L5F] | 3.36
11 | FLRQQPFRGDDGIFDDNFIEERKQ [L5Q] | 3.72
12 | FLRQVPFRGDDGIFDDNFIEERKQ [L5V] | 4.15
13 | FLRQHPFRGDDGIFDDNFIEERKQ [L5H] | 3.22
14 | FLRQYPFRGDDGIFDDNFIEERKQ [L5Y] | 2.78
15 | FLRQNPFRGDDGIFDDNFIEERKQ [L5N] | 3.78
16 | FLRQIPFRGDDGIFDDNFIEERKQ [L5I] | 2.18
17 | FLRQDPFRGDDGIFDDNFIEERKQ [L5D] | 3.71
18 | FLRQGPFRGDDGIFDDNFIEERKQ [L5G] | 3.74
19 | FLRQSPFRGDDGIFDDNFIEERKQ [L5S] | 4.01
20 | FLRQRPFRGDDGIFDDNFIEERKQ [L5R] | 3.99
21 | FLRQEPFRGDDGIFDDNFIEERKQ [L5E] | 4.62
22 | FLRQAPFRGDDGIFDDNFIEERKQ [L5A] | 3.1
23 | FLRQTPFRGDDGIFDDNFIEERKQ [L5T] | 3.77
24 | FLRQMPFRGDDGIFDDNFIEERKQ [L5M] | 3.39

Row | Variant | protein stability index
25 | FLRQWPFRGDDGIFDDNFIEERKQ [L5W] | 1.96
26 | FLRQKPFRGDDGIFDDNFIEERKQ [L5K] | 4.01
27 | FLRQPPFRGDDGIFDDNFIEERKQ [L5P] | 3.78
28 | FLRQLPYRGDDGIFDDNFIEERKQ [F7Y] | 3.07
29 | FLRQLPMRGDDGIFDDNFIEERKQ [F7M] | 3.32
30 | FLRQLPRRGDDGIFDDNFIEERKQ [F7R] | 3.58
31 | FLRQLPPRGDDGIFDDNFIEERKQ [F7P] | 2.62
32 | FLRQLPDRGDDGIFDDNFIEERKQ [F7D] | 4.03
33 | FLRQLPKRGDDGIFDDNFIEERKQ [F7K] | 4
34 | FLRQLPSRGDDGIFDDNFIEERKQ [F7S] | 3.76
35 | FLRQLPIRGDDGIFDDNFIEERKQ [F7I] | 2.83
36 | FLRQLPVRGDDGIFDDNFIEERKQ [F7V] | 3.83
37 | FLRQLPHRGDDGIFDDNFIEERKQ [F7H] | 3.52
38 | FLRQLPLRGDDGIFDDNFIEERKQ [F7L] | 3.23
39 | FLRQLPCRGDDGIFDDNFIEERKQ [F7C] | 3.16
40 | FLRQLPERGDDGIFDDNFIEERKQ [F7E] | 4.77
41 | FLRQLPGRGDDGIFDDNFIEERKQ [F7G] | 3.5
42 | FLRQLPTRGDDGIFDDNFIEERKQ [F7T] | 4.35
43 | FLRQLPWRGDDGIFDDNFIEERKQ [F7W] | 3.05
44 | FLRQLPNRGDDGIFDDNFIEERKQ [F7N] | 3.87
45 | FLRQLPQRGDDGIFDDNFIEERKQ [F7Q] | 3.59
46 | FLRQLPFLGDDGIFDDNFIEERKQ [R8L] | 2.95
47 | FLRQLPFFGDDGIFDDNFIEERKQ [R8F] | 2.44
48 | FLRQLPFHGDDGIFDDNFIEERKQ [R8H] | 3.96

Row | Variant | protein stability index
49 | FLRQLPFGGDDGIFDDNFIEERKQ [R8G] | 3.79
50 | FLRQLPFIGDDGIFDDNFIEERKQ [R8I] | 2.67
51 | FLRQLPFAGDDGIFDDNFIEERKQ [R8A] | 3.15
52 | FLRQLPFTGDDGIFDDNFIEERKQ [R8T] | 3.97
53 | FLRQLPFSGDDGIFDDNFIEERKQ [R8S] | 3.61
54 | FLRQLPFPGDDGIFDDNFIEERKQ [R8P] | 3.75
55 | FLRQLPFNGDDGIFDDNFIEERKQ [R8N] | 3.68
56 | FLRQLPFVGDDGIFDDNFIEERKQ [R8V] | 3.56
57 | FLRQLPFEGDDGIFDDNFIEERKQ [R8E] | 3.94
58 | FLRQLPFKGDDGIFDDNFIEERKQ [R8K] | 3.69
59 | FLRQLPFWGDDGIFDDNFIEERKQ [R8W] | 3.08
60 | FLRQLPFYGDDGIFDDNFIEERKQ [R8Y] | 3.96
61 | FLRQLPFDGDDGIFDDNFIEERKQ [R8D] | 2.9
62 | FLRQLPFMGDDGIFDDNFIEERKQ [R8M] | 3.1
63 | FLRQLPFQGDDGIFDDNFIEERKQ [R8Q] | 4.22
64 | FLRQLPFCGDDGIFDDNFIEERKQ [R8C] | 2.33
65 | FLRQLPFRPDDGIFDDNFIEERKQ [G9P] | 3.06
66 | FLRQLPFRADDGIFDDNFIEERKQ [G9A] | 3.68
67 | FLRQLPFRCDDGIFDDNFIEERKQ [G9C] | 2.79
68 | FLRQLPFRNDDGIFDDNFIEERKQ [G9N] | 2.72
69 | FLRQLPFREDDGIFDDNFIEERKQ [G9E] | 3.17
70 | FLRQLPFRDDDGIFDDNFIEERKQ [G9D] | 3.04
71 | FLRQLPFRQDDGIFDDNFIEERKQ [G9Q] | 2.98
72 | FLRQLPFRIDDGIFDDNFIEERKQ [G9I] | 2.9

Row | Variant | protein stability index
73 | FLRQLPFRFDDGIFDDNFIEERKQ [G9F] | 3.36
74 | FLRQLPFRHDDGIFDDNFIEERKQ [G9H] | 3.08
75 | FLRQLPFRLDDGIFDDNFIEERKQ [G9L] | 2.99
76 | FLRQLPFRKDDGIFDDNFIEERKQ [G9K] | 3.39
77 | FLRQLTFRGDDGIFDDNFIEERKQ [P6T] | 2.92
78 | FLRQLCFRGDDGIFDDNFIEERKQ [P6C] | 2.49
79 | FLRQLEFRGDDGIFDDNFIEERKQ [P6E] | 2.91
80 | FLRQLKFRGDDGIFDDNFIEERKQ [P6K] | 2.88
81 | FLRQLYFRGDDGIFDDNFIEERKQ [P6Y] | 2.9
82 | FLRQLWFRGDDGIFDDNFIEERKQ [P6W] | 2.15
83 | FLRQLVFRGDDGIFDDNFIEERKQ [P6V] | 2.29
84 | FLRQLIFRGDDGIFDDNFIEERKQ [P6I] | 2.26
85 | FLRQLQFRGDDGIFDDNFIEERKQ [P6Q] | 3.32
86 | FLRQLAFRGDDGIFDDNFIEERKQ [P6A] | 2.22
87 | FLRQLNFRGDDGIFDDNFIEERKQ [P6N] | 3.02
88 | FLRQLMFRGDDGIFDDNFIEERKQ [P6M] | 1.74
89 | FLRQLDFRGDDGIFDDNFIEERKQ [P6D] | 3.31
90 | FLRQLSFRGDDGIFDDNFIEERKQ [P6S] | 3.26
91 | FLRQLRFRGDDGIFDDNFIEERKQ [P6R] | 3.1
92 | FLRQLHFRGDDGIFDDNFIEERKQ [P6H] | 3.1
93 | FLRQLGFRGDDGIFDDNFIEERKQ [P6G] | 3.45
94 | FLRQLFFRGDDGIFDDNFIEERKQ [P6F] | 2.14
